pKd: −log10 of the molar value. Blank lines part the entries; values can stand above or below the substance they belong to.
How the values were obtained:
[1] = biological target: LZ-Las17(281–633), biotinylated leucine zipper dimeric form of Las17 residues 281–633 (S. cerevisiae); assay: supernatant depletion binding assay; biotinylated LZ-Las17(281–633) dimer on magnetic streptavidin beads (16 nM to 2.06 μM dimer for the WT isotherm; 0.6 μM dimer for mutants and CA fusions); 50 nM Arp2/3 complex in solution; 1x PC buffer plus 0.05% Tween-20; 70 min, room temperature; Arp2/3 complex left in the supernatant quantified by anti-Arp3 dot blot
[2] = biological target: Monomeric Las17(281–633) (S. cerevisiae) (UniProt Q12446)
[3] = biological target: LZ-Myo5(1146–1220), biotinylated leucine zipper dimeric form of the Myo5 CA segment (S. cerevisiae) (UniProt P03069); assay: supernatant depletion binding assay; biotinylated LZ-Myo5–CA dimer on magnetic streptavidin beads (25 nM to 1.6 μM dimer for the WT isotherm; 0.4 μM dimer for mutants); 50 nM Arp2/3 complex in solution; 1x PC buffer plus 0.05% Tween-20; 70 min, room temperature; Arp2/3 complex left in the supernatant quantified by anti-Arp3 dot blot

Substance: S. cerevisiae Arp2/3 complex with Arp2(V142A, Y146A) (from UniProt P47117 1-449; P32381 1-391; P38328 1-384; P53731 1-342)
reduction in binding compared with the WT complex [1]: 50%

Substance: S. cerevisiae Arp2/3 complex with Arp3(R403D, K404D) (from UniProt P47117 1-449; P32381 1-391; P38328 1-384; P53731 1-342)
maximum polymerization rate in pyrene actin polymerization assay as percent of WT activity; 20 nM Arp2/3 complex, 3 μM 15% pyrene actin, 1.5 μM monomeric Las17(281–633), PC buffer (% of the WT activity) [2]: 20

Substance: S. cerevisiae Arp2/3 complex with the CA segment of N-WASP fused to Arp2 (Arp2–CA fusion complex) (from UniProt P47117 1-449; P38328 1-384; P53731 1-342)
percent of the complex pulled down at 0.6 μM (LZ-Las17(281–633))2 [1]: 30%

Substance: S. cerevisiae Arp2/3 complex with the CA segment of N-WASP fused to Arp3 (Arp3–CA fusion complex) (from UniProt P32381 1-391; P38328 1-384; P53731 1-342)
percent of the complex pulled down at 0.6 μM (LZ-Las17(281–633))2 [1]: 73%

Second part, the substance after the results:

reduction in binding compared with the WT complex [1]: 50%
Substance: S. cerevisiae Arp2/3 complex with ARPC1(F183A, K185D) (from UniProt P47117 1-449; P32381 1-391; P38328 1-384; P53731 1-342)

reduction in binding compared with WT Arp2/3 complex [1]: 30% | maximum polymerization rate in pyrene actin polymerization assay as percent of WT activity; 20 nM Arp2/3 complex, 3 μM 15% pyrene actin, Las17(281–633), PC buffer (% of the WT activity) [2]: 56
Substance: S. cerevisiae Arp2/3 complex with Arp3(R371D) (from UniProt P47117 1-449; P32381 1-391; P38328 1-384; P53731 1-342)

maximum polymerization rate in pyrene actin polymerization assay as percent of WT activity; 20 nM Arp2/3 complex, 3 μM 15% pyrene actin, 1.5 μM monomeric Las17(281–633), PC buffer (% of the WT activity) [2]: 17
Substance: S. cerevisiae Arp2/3 complex with Arp3(W191A, T192A) (from UniProt P47117 1-449; P32381 1-391; P38328 1-384; P53731 1-342)

pKd [1]: 6.80 | pKd [3]: 6.89
Substance: WT S. cerevisiae Arp2/3 complex (ARPC2 with C-terminal tandem 12xHis and TwinStrep tags) (from UniProt P47117 1-449; P32381 1-391; P38328 1-384; P53731 1-342)

Reference: publication PMC10944109
